{
  "source": "patent US20190016796A1",
  "key": {"[1]": {"molecular_target": "murine interleukin-2 (mouse) (UniProt P04351)", "sequence (P04351 21-169 limits assumed)": "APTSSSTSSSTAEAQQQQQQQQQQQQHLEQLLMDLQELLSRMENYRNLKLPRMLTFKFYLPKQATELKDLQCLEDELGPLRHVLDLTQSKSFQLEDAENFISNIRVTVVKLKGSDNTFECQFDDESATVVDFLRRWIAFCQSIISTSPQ", "experiment": "SPR, MAB602 amine-coupled to GLM chip, mouse IL-2 as analyte at concentrations >1 nM"}, "[2]": {"molecular_target": "human interleukin-2 (human) (UniProt P60568)", "sequence (P60568 21-153 limits assumed)": "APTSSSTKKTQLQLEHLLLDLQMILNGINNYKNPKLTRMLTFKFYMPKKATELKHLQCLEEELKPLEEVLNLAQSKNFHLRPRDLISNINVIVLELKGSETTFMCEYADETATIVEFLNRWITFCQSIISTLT", "experiment": "SPR, antibody amine-coupled to GLM chip, hIL-2 as analyte (100 nM, three-fold dilutions)"}, "[3]": {"molecular_target": "human interleukin-2 (human) (UniProt P60568)", "experiment": "sandwich ELISA, hIL-2 captured on coated 5344, biotinylated MAB602 as detector, no competitor (well H11)"}},
  "data": [
    {"binder": "commercially available anti-human IL-2 monoclonal antibody MAB602 (antibody, from another filing, V domains shown) VH: EVQLQESGPGLVAPSQSLSITCTVSGFSLTNYDISWIRQPPGKGLEWLGVIWTGGGTNYNSGFMSRLSITKDNSKSQVFLKMNSLQTDDTAIYYCVRQGRTPYWGQGTLVTVSA VL: DIQVTQSPSSLSVSLGDRVTITCKASKDIYNRLAWYQQKPGNAPRLLISGATSLETGVPSRFSGSGSGKDYTLTITSLQTEDVATYYCQQFWGTPYTFGGGTKLEIKR", "values": [
      {"measurement": "response units (RU)", "setting": "[1]", "value": "> 10", "unit": "RU"},
      {"measurement": "Kd", "setting": "[2]", "value": 9.7, "unit": "nM"},
      {"measurement": "koff", "setting": "[2]", "value": 0.000494, "unit": "s⁻¹"},
      {"measurement": "absorbance (OD450)", "setting": "[3]", "value": 1.1, "unit": "OD450"}
    ]}
  ]
}
